We go through one molecule from US20190151365A1 (Novartis, published 2019).

Experiment [1] concerns the target T1, human PD-1 (human, UniProt Q15116 25-167, limits assumed).
T1 construct: also called Programmed Death 1
In words: Biacore (SPR). The source says:
PDR-001 was characterized in vitro for its affinity and activity on human PD-1. PDR-001 was expressed in a CHO cell line. PDR-001 bound with high affinity to human PD-1. […] In lymphocyte stimulation assays using human blood ex vivo, PDR-001 enhanced interleukin-2 (IL-2) production by approximately 2 fold in response to super antigen stimulation with Staphylococcus enterotoxin B (SEB).

Experiment [2] addresses T2, cynomolgus monkey PD-1 (cynomolgus monkey, UniProt B0LAJ3 25-170).
T2 construct: also called cynomolgus PD-1
Description: method not stated for this value (human value by Biacore).

Experiment [3] concerns the target T1, human PD-1. Description: cell-based or functional assay.

T1 sequence (Q15116 25-167 limits assumed): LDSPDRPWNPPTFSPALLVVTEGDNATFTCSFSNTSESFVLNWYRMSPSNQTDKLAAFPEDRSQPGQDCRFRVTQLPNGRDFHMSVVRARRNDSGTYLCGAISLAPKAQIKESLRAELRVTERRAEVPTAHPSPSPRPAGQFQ
T2 sequence (B0LAJ3 entry or part of it limits assumed, form in doubt): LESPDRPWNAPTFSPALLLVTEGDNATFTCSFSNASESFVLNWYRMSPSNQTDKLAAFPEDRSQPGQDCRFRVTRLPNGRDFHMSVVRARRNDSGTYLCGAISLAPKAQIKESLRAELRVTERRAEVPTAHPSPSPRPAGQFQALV

B1: PDR-001 (antibody, IgG4, V domains shown)
VH: EVQLVQSGAEVKKPGESLRISCKGSGYTFTTYWMHWVRQATGQGLEWMGNIYPGTGGSNFDEKFKNRVTITADKSTSTAYMELSSLRSEDTAVYYCTRWTTGTGAYWGQGTTVTVSS
VL: EIVLTQSPATLSLSPGERATLSCKSSQSLLDSGNQKNFLTWYQQKPGQAPRLLIYWASTRESGVPSRFSGSGSGTDFTFTISSLEAEDAATYYCQNDYSYPYTFGQGTKVEIK
notes: also called BAP049-Clone-E (variable regions)
With B1, the Kd in experiment [1] came to 0.83 nM; in experiment [2] it was 0.93 nM. In addition, the “interleukin-2 (IL-2) production in lymphocyte stimulation assays using human blood ex vivo, super antigen stimulation with Staphylococcus enterotoxin B (SEB)” value in experiment [3] is about 2 fold.
